Test results from US7205275 (dated 2007).
Read-outs that look alike come from different tables or passages of the source. Primed or numbered codes have the meaning given here. Where no end group is shown, it is not given here. [ ]: non-standard residue; d: D form. mPEG 5K = methoxy-PEG 5 kDa coupled via the N-terminal cysteine; Fc = immunoglobulin Fc domain fused to the peptide (peptibody); Fc″ = Fc domain of the peptibody fusion

B1: mouse Ang-2 (protein)
chain: YSNFRKSVDSTGRRQYQVQNGPCSYTFLLPETDSCRSSSSPYMSNAVQRDAPLDYDDSVQRLQVLENILENNTQWLMKLENYIQDNMKKEMVEIQQNVVQNQTAVMIEIGTSLLNQTAAQTRKLTDVEAQVLNQTTRLELQLLQHSISTNKLEKQILDQTSEINKLQNKNSFLEQKVLDMEGKHSEQLQSMKEQKDELQVLVSKQSSVIDELEKKLVTATVNNSLLQKQQHDLMETVNSLLTMMSSPNSKSSVAIRKEEQTTFRDCAEIFKSGLTTSGIYTLTFPNSTEEIKAYCDMDVGGGGWTVIQHREDGSVDFQRTWKEYKEGFGSPLGEYWLGNEFVSQLTGQHRYVLKIQLKDWEGNEAHSLYDHFYLAGEESNYRIHLTGLTGTAGKISSISQPGSDFSTKDSDNDKCICKCSQMLSGGWWFDACGPSNLNGQYYPQKQNTNKFNGIKWYYWKGSGYSLKATTMMIRPADF
B3: human Ang-1 (protein)
chain: SNQRRSPENSGRRYNRIQHGQCAYTFILPEHDGNCRESTTDQYNTNALQRDAPHVEPDFSSQKLQHLEHVMENYTQWLQKLENYIVENMKSEMAQIQQNAVQNHTATMLEIGTSLLSQTAEQTRKLTDVETQVLNQTSRLEIQLLENSLSTYKLEKQLLQQTNEILKIHEKNSLLEHKILEMEGKHKEELDTLKEEKENLQGLVTRQTYIIQELEKQLNRATTNNSVLQKQQLELMDTVHNLVNLCTKEGVLLKGGKREEEKPFRDCADVYQAGFNKSGIYTIYINNMPEPKKVFCNMDVNGGGWTVIQHREDGSLDFQRGWKEYKMGFGNPSGEYWLGNEFIFAITSQRQYMLRIELMDWEGNRAYSQYDRFHIGNEKQNYRLYLKGHTGTAGKQSSLILHGADFSTKDADNDNCMCKCALMLTGGWWFDACGPSNLNGMFYTAGQNHGKLNGIKWHYFKGPSYSLRSTTMMIRPLDF
B4: human Ang-2 (protein)
chain: YNNFRKSMDSIGKKQYQVQHGSCSYTFLLPEMDNCRSSSSPYVSNAVQRDAPLEYDDSVQRLQVLENIMENNTQWLMKLENYIQDNMKKEMVEIQQNAVQNQTAVMIEIGTNLLNQTAEQTRKLTDVEAQVLNQTTRLELQLLEHSLSTNKLEKQILDQTSEINKLQDKNSFLEKKVLAMEDKHIIQLQSIKEEKDQLQVLVSKQNSIIEELEKKIVTATVNNSVLQKQQHDLMETVNNLLTMMSTSNSAKDPTVAKEEQISFRDCAEVFKSGHTTNGIYTLTFPNSTEEIKAYCDMEAGGGGWTIIQRREDGSVDFQRTWKEYKVGFGNPSGEYWLGNEFVSQLTNQQRYVLKIHLKDWEGNEAYSLYEHFYLSSEELNYRIHLKGLTGTAGKISSISQPGNDFSTKDGDNDKCICKCSQMLTGGWWFDACGPSNLNGMYYPQRQNTNKFNGIKWYYWKGSGYSLKATTMMIRPADF

Assays:
rat Ang-2 (rAng-2) = biological target: T1, rat Ang-2 (rAng-2) (rat, UniProt O35462); assay: competition ELISA vs Tie-2
T1 chain: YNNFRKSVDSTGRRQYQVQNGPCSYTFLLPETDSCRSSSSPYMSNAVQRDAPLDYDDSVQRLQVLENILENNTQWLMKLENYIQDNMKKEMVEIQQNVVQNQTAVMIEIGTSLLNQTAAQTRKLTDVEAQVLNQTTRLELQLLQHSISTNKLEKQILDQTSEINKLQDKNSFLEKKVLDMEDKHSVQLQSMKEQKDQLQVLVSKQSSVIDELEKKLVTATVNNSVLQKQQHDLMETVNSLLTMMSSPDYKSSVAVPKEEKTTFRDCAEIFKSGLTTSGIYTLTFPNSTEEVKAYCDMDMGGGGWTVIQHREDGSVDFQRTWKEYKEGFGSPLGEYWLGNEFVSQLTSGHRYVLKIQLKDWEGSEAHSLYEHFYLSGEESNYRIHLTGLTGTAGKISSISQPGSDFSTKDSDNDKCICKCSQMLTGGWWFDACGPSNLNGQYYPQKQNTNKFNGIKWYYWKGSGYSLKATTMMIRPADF

cAng-2 = biological target: T2, cAng-2 (UniProt O15123); assay: competition ELISA vs Tie-2
T2 chain: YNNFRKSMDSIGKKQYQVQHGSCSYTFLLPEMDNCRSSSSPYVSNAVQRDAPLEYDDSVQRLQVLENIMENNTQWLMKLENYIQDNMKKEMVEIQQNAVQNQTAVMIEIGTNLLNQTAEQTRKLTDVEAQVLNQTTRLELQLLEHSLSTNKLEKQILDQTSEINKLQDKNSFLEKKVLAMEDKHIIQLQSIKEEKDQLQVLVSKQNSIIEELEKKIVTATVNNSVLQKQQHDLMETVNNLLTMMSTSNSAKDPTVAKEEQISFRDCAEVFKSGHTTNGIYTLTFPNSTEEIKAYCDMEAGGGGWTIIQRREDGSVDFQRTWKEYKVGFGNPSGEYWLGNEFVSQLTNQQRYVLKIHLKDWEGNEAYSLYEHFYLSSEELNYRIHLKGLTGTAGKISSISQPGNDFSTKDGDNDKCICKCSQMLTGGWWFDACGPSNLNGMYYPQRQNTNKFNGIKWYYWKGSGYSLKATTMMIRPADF

human Ang-2 [1] = biological target: B4; assay: SPR
mouse Ang-1 = biological target: T3, mouse Ang-1 (mouse, UniProt O08538); assay: competition ELISA vs Tie-2
T3 chain: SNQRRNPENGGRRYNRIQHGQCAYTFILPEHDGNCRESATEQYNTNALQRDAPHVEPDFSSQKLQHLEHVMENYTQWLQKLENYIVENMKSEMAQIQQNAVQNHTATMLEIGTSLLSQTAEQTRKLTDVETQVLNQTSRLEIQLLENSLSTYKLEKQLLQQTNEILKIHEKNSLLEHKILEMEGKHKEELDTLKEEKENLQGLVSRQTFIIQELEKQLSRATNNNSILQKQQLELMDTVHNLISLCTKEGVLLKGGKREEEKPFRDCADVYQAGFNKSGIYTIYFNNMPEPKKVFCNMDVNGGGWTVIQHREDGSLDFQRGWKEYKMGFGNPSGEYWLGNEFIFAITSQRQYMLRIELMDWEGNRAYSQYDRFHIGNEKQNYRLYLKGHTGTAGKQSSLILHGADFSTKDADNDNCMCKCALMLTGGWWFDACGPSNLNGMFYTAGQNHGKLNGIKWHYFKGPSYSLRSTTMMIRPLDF

human Ang-1 = biological target: B3; assay: competition ELISA vs Tie-2
human Ang-2 [2] = biological target: B4; assay: competition ELISA vs Tie-2
human Ang-2 [3] = biological target: B4; assay: competition ELISA vs Tie-2
mouse Ang-2 [4] = biological target: B1; assay: competition ELISA vs Tie-2
[5] = biological target: Negative Control Peptibody 4883; assay: ELISA
mouse Ang-2 [6] = biological target: B1; assay: competition ELISA vs Tie-2
human Ang-2 [7] = biological target: B4; assay: competition ELISA vs Tie-2
[8] = biological target: Negative Control Peptibody 4883; assay: ELISA; remark: listed apart in the source
[9] = biological target: Negative Control Peptibody 4883; assay: ELISA; remark: listed apart in the source
human Ang-2 [10] = biological target: B4; assay: competition ELISA vs Tie-2

MGAQHTFQPLDELEETLYYQWLYDQLLEGGGGG-{Fc″} [L1-21 (N)]
IC50 (rat Ang-2 (rAng-2)): 0.204 nM | IC50 (cAng-2): 0.608 nM | Kd (human Ang-2 [1]): 0.24 nM | IC50 (mouse Ang-1): > 1000 nM | IC50 (human Ang-1): > 1000 nM | IC50 (human Ang-2 [2]): 0.17 nM | IC50 (human Ang-2 [3]): 0.179 nM | IC50 (mouse Ang-2 [4]): 0.249 nM

B1
binding result [5]: no binding

B2: Con4 (C) (peptide)
chain: M[Fc]GGGGGAQQEECEWDPWTCEHMLE
modifications: not fully specified (bridges); printed as M-Fc-GGGGGAQQEECEWDPWTCEHMLE; cysteine pairing not given here; also: Fc fusion domain at position 2
IC50 (mouse Ang-2 [6]): 0.3 nM | IC50 (rat Ang-2 (rAng-2)): 0.236 nM | IC50 (cAng-2): 0.54 nM | Kd (human Ang-2 [1]): 0.38 nM | IC50 (mouse Ang-1): 300 nM | IC50 (human Ang-1): 200 nM | IC50 (human Ang-2 [7]): 0.2 nM | IC50 (human Ang-2 [3]): 0.197 nM | IC50 (mouse Ang-2 [4]): 0.289 nM

B3
binding result [8]: no binding

MGAQTNFMPMDDLEQRLYEQFILQQGLEGGGGG-Fc [L1-7 (N)]
IC50 (rat Ang-2 (rAng-2)): 0.035 nM | IC50 (cAng-2): 0.108 nM | Kd (human Ang-2 [1]): 0.24 nM | IC50 (mouse Ang-1): > 1000 nM | IC50 (human Ang-1): > 1000 nM | IC50 (human Ang-2 [2]): 0.03 nM | IC50 (human Ang-2 [3]): 0.046 nM | IC50 (mouse Ang-2 [4]): 0.063 nM

B4
binding result [9]: no binding

B5: PEG3.4K(L1-7 Peptide)2 (peptide)
chain: CGGGGGAQTNFMPMDDLEQRLYEQFILQQGLE
modifications: not fully specified (residue 1); printed as C-GGGGG-AQ-TNFMPMDDLEQRLYEQFILQQG-LE; also: dimer linked by PEG 3.4K via N-terminal Cys
IC50 (human Ang-2 [10]): 0.058 nM

C(mPEG 5K)GGGGGAQTNFMPMDDLEQRLYEQFILQQGLE [mPEG5K-(L1-7 Peptide)]
IC50 (human Ang-2 [10]): 11.7 nM
